Measured values reported in patent US20250123280A1, “LABEL-FREE DETECTION OF PROTEASE ACTIVITY” (OREGON HEALTH & SCIENCE UNIVERSITY, priority 2021, published 2025).
One block for each molecule: values may come before it. Ends that are not written are not given here. Peptide text beside a SMILES is read from it. * marks the point of attachment. Fmoc = O=C(OCC1c2ccccc2-c2ccccc21)*

Tests used:
cathepsin B = target: T1, cathepsin B (Homo sapiens, UniProt P07858); experiment: Cathepsin B assay with peptide 3 and ThT; type: biochemical; conditions: after treatment with cathepsin B (1000 ng/mL vs 0 ng/mL)
T1 construct: purchased Bio-Techne
Description: Peptide 3 was prepared as a 2.0 mg/mL solution in 1× phosphate buffered saline, pH 7.4 and 5% DMSO. In a typical assay experiment, 50 μL of the peptide 3 solution was mixed 50 μL of 50 mM MES buffer, pH 5 with cathepsin B at a concentration between about 0 and about 1000 ng/mL in a 96-well microplate and the plate was incubated at 37° C. for 2 hours. Then, 10 μL of 0.1 μm-filtered 1 mM aqueous ThT solution was added to each well and mixed for a final concentration of 90 μM ThT. After 15-30 min incubation at room temperature, the ThT fluorescence was measured at room temperature using a Tecan Spark 20M microplate reader.

[1] = Solubility in aqueous solutions; type: physicochemical
[2] = ThT fluorescence of self-assembled peptide 2 in assay buffer; conditions: peptide 2 0.58 mg/mL in assay buffer, ThT 90 μM
Description: β-sheet rich nanoplatelet formation by self-assembly of peptide 2. […] Nano Lett. 2017, 17 (9), 5546-5554). […] ThT (90 μM) addition to this solution yielded a bright fluorescence with an emission maximum of about 490 nm (see FIG. 2).

[3] = target: the molecule itself; experiment: self-assembly of peptide 2 in assay buffer; centrifugation, TEM, AFM
Description: Transmission electron microscopy (TEM) and atomic force microscopy (AFM) imaging. […] After incubating at 37° C. for 2.0 hours, the formed aggregates were collected by centrifugation and resuspended in ultrapure water. […] TEM images were taken using a Tecnai microscope (FEI). To prepare TEM samples, 5 μL of solutions were placed on carbon film 200 copper mesh TEM grids. Samples were incubated on TEM grids for about 5 minutes and bloated and air dried. Uranyl acetate was prepared in distilled water at 2% w/v and filtered with a 0.1 μm syringe filter before each use. A 20 μl droplet of this solution was placed on Parafilm and the TEM grid was floated on it for 7 minutes. Excess uranyl acetate was blotted using Whatman paper, and the sample is left to dry at room temperature.
The morphology of these structures was investigated using transmission electron microscopy (TEM) and atomic force microscopy (AFM). […] AFM experiments were performed to further analyze the morphology of self-assembled nano-platelets.

[4] = target: T2, Peptide 1 (Fmoc-Phe-Lys-Phe-Glu-Ala-Ala-Asn-Gly-Glu-Glu-Gly-Ser-Gly-Glu-Glu)
T2 chain: FKFEAANGEEGSGEE

[5] = target: the molecule itself; experiment: circular dichroism of peptide 1 alone (self-assembly)

increase in ThT fluorescence (cathepsin B): ≤ 72 fold
Molecule: Fmoc-FKFELAGGAGEEGSGEEE [peptide 3, cathepsin B substrate motif LAGGAG in place of the legumain substrate]

solubility in aqueous solutions [1]: not soluble in aqueous solutions
Molecule: C[C@H](NC(=O)[C@H](C)NC(=O)[C@H](CCC(=O)O)NC(=O)[C@H](Cc1ccccc1)NC(=O)[C@H](CCCCN)NC(=O)[C@H](Cc1ccccc1)NC(=O)OCC1c2ccccc2-c2ccccc21)C(=O)N[C@@H](CC(N)=O)C(=O)O [peptide 2, Fmoc-FKFEAAN] (Fmoc-FKFEAAN-OH)
enhancement in the ThT fluorescence intensity [2]: 45 fold

B1: Peptide 2 (Fmoc-FKFEAAN) (peptide)
peptide: Fmoc-FKFEAAN
notes: Synthetic peptide bought from GenScript (1048.2 g/mol); It is also the product of hydrolysis of peptide 1 by legumain; It self-assembles into many-copy nanoplatelets; also called protein 2; self-assembly precursor
binding result [3]: binds

B2: Recombinant mouse legumain (protein)
chain: VPVGVDDPEDGGKHWVVIVAGSNGWYNYRHQADACHAYQIIHRNGIPDEQIIVMMYDDIANSEENPTPGVVINRPNGTDVYKGVLKDYTGEDVTPENFLAVLRGDAEAVKGKGSGKVLKSGPRDHVFIYFTDHGATGILVFPNDDLHVKDLNKTIRYMYEHKMYQKMVFYIEACESGSMMNHLPDDINVYATTAANPKESSYACYYDEERGTYLGDWYSVNWMEDSDVEDLTKETLHKQYHLVKSHTNTSHVMQYGNKSISTMKVMQFQGMKHRASSPISLPPVTHLDLTPSPDVPLTILKRKLLRTNDVKESQNLIGQIQQFLDARHVIEKSVHKIVSLLAGFGETAERHLSERTMLTAHDCYQEAVTHFRTHCFNWHSVTYEHALRYLYVLANLCEAPYPIDRIEMAMDKVCLSHY
LC-MS, fraction of peptide 1 cleaved [4]: almost 30% of the peptide was cleaved by legumain | ON/OFF ratio of the assay in albumin depleted 20% plasma [4]: improve the ON/OFF ratio of the assay to about 10 | ThT emission enhancement at 1 mg/mL peptide 1 (500 ng/mL legumain) [4]: a 28-fold enhancement in its emission was obtained at 1 mg/mL peptide concentration | ThT emission intensity enhancement at 1000 ng/mL legumain (1.0 mg/mL peptide 1, 2 h) [4]: about 32 fold at 1000 ng/mL legumain concentration | ThT emission intensity increase at peptide 1 below 0.25 mg/mL (500 ng/mL legumain) [4]: minimal (1.3-1.4 fold) | ThT fluorescence enhancement at 10.0 ng/mL legumain [4]: a slight (about 1.3 fold) fluorescence enhancement was obtained at the legumain concentration of 10.0 ng/mL | ThT fluorescence enhancement at 25.0 ng/mL legumain [4]: an easily detectable (about 3-fold) fluorescence enhancement was detected at 25.0 ng/mL | ThT fluorescence enhancement in 10% plasma (1000 ng/mL legumain, 25 µM ThT) [4]: a fluorescence enhancement of about 20 fold was obtained in 10% plasma at the legumain concentration of 1000 ng/mL | ThT fluorescence enhancement in 20% human plasma (1000 ng/mL legumain, 90 µM ThT) [4]: a detectable fluorescence enhancement (about 2.5 fold) | ThT fluorescence intensity at 24 hours relative to 2 hours (1000 ng/mL legumain) [4]: at 24 hours, the fluorescence intensity was about 2.5 higher compared with the intensity at two hours | limit of detection (LOD) of legumain in the peptide 1 / ThT assay [4]: about 12 ng/mL (0.21 nM) | limit of quantification (LOQ) of legumain in the peptide 1 / ThT assay [4]: about 25 ng/mL (0.45 nM) | minimum detectable legumain concentration in 10% plasma [4]: a minimum detectable concentration between 50 ng/mL to 200 ng/mL

Molecule: Fmoc-FKFEAANGEEGSGEE (also called protein 1; the probe) [Peptide 1 (Fmoc-Phe-Lys-Phe-Glu-Ala-Ala-Asn-Gly-Glu-Glu-Gly-Ser-Gly-Glu-Glu)]
binding result [5]: no binding (tested: 0.333 mg/mL)
